# Assay: soluble on expression in E. coli; label from the status in PepcDB or PDB records
row,Sequence,soluble on expression in E. coli
1,MRGSHHHHHHTDPALRAKRAVVVFSGGQDSTTCLVQALQQYDEVHCVTFDYGQRHRAEIDVARELALKLGARAHKVLDVTLLNELAVSSLTRDSIPVPDYEPEADGIPNTFVPGRNILFLTLAAIYAYQVKAEAVITGVCETDFSGYPDCRDEFVKALNHAVSLGMAKDIRFETPLMWIDKAETWALADYYGKLDLVRNETLTCYNGFKGDGCGHCAACNLRANGLNHYLADKPTVMAAMKQKTGLRGLCGR,soluble
2,RDTSVVVEHTSANPTGPVHVGRARNPIIGDAVARVLDYAGYDVDRHYYVNDAGRQIAVFTWAYETFDEDDLPEPERESPEYEMVRYYRKGNTILEDGDPDEVEAAEAEVQSILQGLEDGDEETYERVAEVVDTVLGGMQNTLGRLPAEFDEFVKETKFMRNGDTDDLVDRLKGLDCAVYEEDAWQLDLPDFEKNLVFLRSDGTSLYTTRDLAHHEWKFDTYDRAVTVLGEDHKLQADQLAAALELLDNDTDQLRQVFYSWVNLPEGGMSTREGTGIDLDDLLDEAIDRAREEVESRLDDRTRGDLDEDDIDRIARQVGIGAVRYDIVSKQPTKGITFEWDRALDFEAQSAPYVQYV,not soluble
3,DKTVKRAVPFKIIKMIKELDLSFEPQLELARDIFLFSFYTRGMSFIDMAHLKKSNLQNGILTYSRKKTGQRLTILWEELMQEIVDKYKDDTSEYLLPILRYCDINDRKQYKLRAKQIGRGLNKIGLRLELKAPLTFYVARHSWASIAQDRKVSTDIIREGLGHDNEKTTHIYLASISTSQIDRANQIILRGL,soluble
4,MREQQPDVPPAEPANDVVAPPPLMDLGPPVNPMLPLDLPYNVVREIGIAVSSKITILLLRTPNYKLD,not soluble
5,MGSDKIHHHHHHAKNVLKAWLVDNTVTTDDKTDKIFQLETTRSIDKEIILDRMVAKNPGVRRETMALGIELMEEVVAEALMNGESVNTGLFRGVAQFRGVAKQNAWDAATNSIYVSLTQGKALREAIKDTRVDVLGERPTKFYIGSGQDATTRATDFSATAGRNFTLFGKNLTVAGTDPSVGVTLASAATGTVTKIDNDMIVLNEPSRLIILLPASLEDGEYMLTVTTQYRGGGGALLKTPRSTSHTIYIGGAPETGGSTGPPGDSDGDLNENPLG,not soluble
6,MSLKTGRALRIAVLVSGRLNLWFSSSIIEGLNEVFHDEGYDISIYQMSSTEERSEFFDMLPVRRNVDAVIVISFDIASNEIRQLRSVDVPIIGINSSLPEERGFNAAVRIDDKQGSELAARHLMMLGHRDIVYIRSDREVTLHFSVQGRYESFMACCQANGVEPRVLVTDAGRNRISKVVTQLLSLDHMPTAIACQEDGIAVPLLFQLERNGFTVPNDISIIGYDDSVYARDLGLTTIRQTPVEMAREAARMTLALIEKQPLDEPFKTFPAQLIVRSTTARLHSEGHHHHHH,soluble
7,MGSDKIHHHHHHMRQESLFNPDKSSSSPLAYRVRPVTLADFKGQEHLLGPGKLLRQLIAEDQLPSLIFWGPPGVGKTTLAEIIAQQTQSHFITFSAVTSGIKEIRQIMDEAEANRDFGEKTIVFIDEIHRFNKAQQDAFLPYVERGSITLIGATTENPSFEINAALLSRCKVLVLKALTPDALEAVLQGALQNPKGFPDLEITMQPDTLRLIAEFANGDARMALNTLEMAVLNGDRDGKHVTITTAGLSQLINTKSLRYDKHGEEHYNIISALHKSMRNSDVDAAIYWLMRMLAGGEDPLYIARRLIRFASEDIGLADRQALPLTVAVFQACQLIGMPECDVNLTEAVTYLALAPKSNALYAAKSAAQADIKATGNLPVPLQIRNAPTKLMKDLGYGSDYQYAHDTAAKLTTMTTMPPELKQHRYYEPTSQGQEKAWQQRLAAIRSGTSNIRKPNRQMMRHKDCNLMRIH,not soluble
8,MSEMNAVYNVKQYILNLIMQNKLEYGDQLPSNLSIARELNVKTDDVYEAIQALITEQVIKDNFEEGTSVKSLPPFFYPLNELISIGQMIKNAGFECGTEYLNFDEQPATMLDANLLSVEEGYPVTIIERLRTADGEPVVYCLDKIAKKELTCTEYQMSNGSILSAIKEQSNHNICYADTEIEAVNYEPRISEVLNASPHEGLILLKITHYNELDEPILYSLNYMKNSLVQFKITRKI,not soluble
9,MNRLVILARVSTSKQDTERQLSDLNEVCTRNQYDLVNTFTETVSGKYGITERTTLQAIIKMAELKQFDKLLVSEVSRIGRKTSEVLKFIEILTERKISIYIHNYGLETLDRNLNQNPLIGMMINFLSSFSDMERTLTISRVKSGLEEARRRNVILGRPKNSTKDIDIFIDENKRLFELIKKQLTIREIARLTYKSTTTVVKAIKLYKLHPEKFLSAT,not soluble

# Source: the DeepSol protein solubility set
